Assay results: the supplement of paper PMC6757056
± gives the standard deviation of the averaged measurements.

B1: library; a variant is named by its letters at N, in order (parent)
chain: GCUGUCACCGGUGUAUUACCCUAGUGGUCGACCGGUCUGAUGAGUCUNNNNNNAGACGAAACAGC

Tests used:
[1] = variants of: B1; test: normalized RNA/DNA level with ligand (relative to sTRSVctl = 100) (log10 (% of sTRSVctl)); ligand: hypoxanthine (xanthine aptamer); higher = less ribozyme self-cleavage, higher mRNA level; conditions: ligand concentration (+) RNA-Seq: 5 mM, HEK293T, reporter: mCherry (pCS4076), ligand present: yes
How it was run: (§1)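 Library plasmids carrying ribozyme switches linked to mCherry, or to eGFP in some ligand experiments, were transfected into HEK293T at 4 µg per 6-well well, with any ligand added 1 h earlier. Seventy-two hours on, total RNA was extracted with EDTA and reverse-transcribed, amplified, barcoded and sequenced. RNA level was RNA over DNA reads normalized to a spiked-in non-cleaving sequence or to the top sequences, then scaled and log-transformed. The top set was 25 sequences, the transform was ×100 and log10, and sequences needed ≥100 DNA reads.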

[2] = variants of: B1; test: normalized RNA/DNA level without ligand (relative to sTRSVctl = 100) (log10 (% of sTRSVctl)); ligand: hypoxanthine (xanthine aptamer); higher = less ribozyme self-cleavage, higher mRNA level; conditions: HEK293T, reporter: mCherry (pCS4076), ligand present: no
How it was run: as §1

Variant | normalized RNA/DNA level with ligand (log10) [1] | normalized RNA/DNA level without ligand (log10) [2]
GCGAUA | 1.88 ± 0.083 | 1.594 ± 0.0079
UCGAUA | 1.91 ± 0.026 | 1.57 ± 0.032
CCGAUC | 1.99 ± 0.037 | 1.87 ± 0.056
ACGAUC | 1.963 ± 0.0088 | 1.89 ± 0.013
CCGAUG | 1.82 ± 0.064 | 1.42 ± 0.049
UCGAUG | 1.922 ± 0.011 | 1.62 ± 0.033
UCGAUU | 1.912 ± 0.013 | 1.55 ± 0.12
ACGAUU | 1.837 ± 0.0076 | 1.32 ± 0.019
CCGCAA | 1.95 ± 0.04 | 1.78 ± 0.046
GCGCAA | 1.873 ± 0.014 | 1.52 ± 0.023
CCGCAC | 1.964 ± 0.013 | 1.754 ± 0.0073
UCGCAC | 1.97 ± 0.069 | 1.827 ± 0.014
ACGCAC | 1.89 ± 0.022 | 1.7 ± 0.041
CCGCAU | 1.96 ± 0.048 | 1.786 ± 0.0041
GCGCAU | 1.89 ± 0.026 | 1.55 ± 0.044
UCGCAU | 1.87 ± 0.022 | 1.68 ± 0.018
CCGCCA | 1.97 ± 0.045 | 1.94 ± 0.053
GCGCCA | 1.97 ± 0.025 | 1.711 ± 0.01
UCGCCA | 2.016 ± 0.0013 | 1.81 ± 0.034
ACGCCA | 1.95 ± 0.045 | 1.81 ± 0.019
CCGCCC | 2.025 ± 0.013 | 1.99 ± 0.044
UCGCCC | 1.981 ± 0.01 | 1.99 ± 0.069
ACGCCC | 1.94 ± 0.026 | 1.875 ± 0.0043

Variant | normalized RNA/DNA level with ligand (log10) [1] | normalized RNA/DNA level without ligand (log10) [2]
CCGCCG | 1.956 ± 0.016 | 1.66 ± 0.037
GCGCCG | 1.91 ± 0.03 | 1.44 ± 0.017
UCGCCG | 2 ± 0.035 | 1.841 ± 0.008
ACGCCG | 1.873 ± 0.011 | 1.4 ± 0.032
CCGCCU | 1.94 ± 0.025 | 1.95 ± 0.051
GCGCCU | 2 ± 0.055 | 1.78 ± 0.052
ACGCCU | 1.945 ± 0.008 | 1.63 ± 0.068
CCGCGA | 1.88 ± 0.018 | 1.62 ± 0.016
GCGCGA | 1.844 ± 0.0031 | 1.51 ± 0.025
UCGCGA | 1.89 ± 0.03 | 1.69 ± 0.071
ACGCGA | 1.77 ± 0.072 | 1.29 ± 0.05
CCGCGC | 1.963 ± 0.0058 | 1.7 ± 0.06
GCGCGC | 1.93 ± 0.082 | 1.68 ± 0.026
UCGCGC | 2.01 ± 0.035 | 1.8 ± 0.024
UCGCGG | 1.93 ± 0.1 | 1.78 ± 0.037
CCGCGU | 1.97 ± 0.023 | 1.71 ± 0.064
GCGCGU | 1.92 ± 0.064 | 1.58 ± 0.12
ACGCGU | 1.95 ± 0.021 | 1.57 ± 0.096
GCGCUA | 1.88 ± 0.067 | 1.68 ± 0.031
UCGCUA | 1.96 ± 0.037 | 1.725 ± 0.0084
ACGCUA | 1.948 ± 0.0038 | 1.69 ± 0.063
CCGCUC | 2.005 ± 0.0034 | 1.963 ± 0.019
GCGCUC | 1.919 ± 0.015 | 1.64 ± 0.052

Variant | normalized RNA/DNA level with ligand (log10) [1] | normalized RNA/DNA level without ligand (log10) [2]
UCGCUC | 1.98 ± 0.049 | 2.109 ± 0.015
ACGCUC | 2.02 ± 0.048 | 1.908 ± 0.0022
GCGCUG | 1.86 ± 0.028 | 1.36 ± 0.03
UCGCUG | 1.98 ± 0.069 | 1.803 ± 0.0034
CCGCUU | 1.96 ± 0.051 | 1.887 ± 0.0021
GCGCUU | 1.96 ± 0.065 | 1.76 ± 0.046
UCGCUU | 1.984 ± 0.0024 | 1.7 ± 0.035
ACGCUU | 1.907 ± 0.016 | 1.5 ± 0.022
UCGGAA | 1.84 ± 0.043 | 1.31 ± 0.017
UCGGAC | 1.981 ± 0.002 | 1.877 ± 0.012
CCGGAU | 1.9742 ± 0.0018 | 1.777 ± 0.012
UCGGAU | 1.86 ± 0.036 | 1.3978 ± 0.00098
CCGGCA | 1.97 ± 0.03 | 1.895 ± 0.0097
GCGGCA | 1.94 ± 0.055 | 1.7 ± 0.052
UCGGCA | 1.99 ± 0.056 | 1.7 ± 0.098
ACGGCA | 1.902 ± 0.019 | 1.702 ± 0.008
CCGGCC | 1.98 ± 0.029 | 2 ± 0.051
GCGGCC | 2 ± 0.046 | 1.76 ± 0.076
UCGGCC | 2.04 ± 0.081 | 1.951 ± 0.006
ACGGCC | 1.96 ± 0.02 | 1.88 ± 0.029
CCGGCG | 1.94 ± 0.13 | 1.72 ± 0.14
CCGGCU | 2.04 ± 0.043 | 1.99 ± 0.024
GCGGCU | 1.971 ± 0.0061 | 1.84 ± 0.04

Variant | normalized RNA/DNA level with ligand (log10) [1] | normalized RNA/DNA level without ligand (log10) [2]
UCGGCU | 1.913 ± 0.014 | 1.8 ± 0.063
ACGGCU | 1.88 ± 0.034 | 1.6 ± 0.016
GCGGGC | 1.86 ± 0.046 | 1.58 ± 0.084
UCGGGC | 2.021 ± 0.017 | 1.99 ± 0.0053
CCGGGG | 1.83 ± 0.057 | 1.34 ± 0.084
UCGGGG | 1.98 ± 0.05 | 1.69 ± 0.035
CCGGGU | 2.04 ± 0.054 | 1.93 ± 0.15
UCGGGU | 1.81 ± 0.075 | 1.55 ± 0.13
CCGGUA | 1.93 ± 0.034 | 1.863 ± 0.0044
CCGGUC | 1.96 ± 0.039 | 1.95 ± 0.029
UCGGUC | 2.034 ± 0.0059 | 1.969 ± 0.012
ACGGUC | 1.94 ± 0.039 | 1.87 ± 0.0091
UCGGUG | 1.9763 ± 0.0017 | 1.67 ± 0.028
ACGGUG | 1.8673 ± 0.00056 | 1.24 ± 0.062
GCGGUU | 1.919 ± 0.018 | 1.72 ± 0.056
UCGGUU | 1.938 ± 0.006 | 1.61 ± 0.04
ACGGUU | 1.84 ± 0.024 | 1.36 ± 0.064
CCGUAA | 1.95 ± 0.098 | 1.67 ± 0.1
GCGUAA | 1.83 ± 0.035 | 1.49 ± 0.054
UCGUAA | 1.87 ± 0.04 | 1.53 ± 0.066
CCGUAC | 1.92 ± 0.047 | 1.66 ± 0.037
UCGUAC | 1.94 ± 0.055 | 1.77 ± 0.031
ACGUAC | 1.9 ± 0.041 | 1.55 ± 0.036

Variant | normalized RNA/DNA level with ligand (log10) [1] | normalized RNA/DNA level without ligand (log10) [2]
CCGUAG | 1.82 ± 0.024 | 1.35 ± 0.099
CCGUAU | 1.91 ± 0.033 | 1.749 ± 0.0044
UCGUAU | 1.92 ± 0.045 | 1.61 ± 0.024
ACGUAU | 1.86 ± 0.057 | 1.39 ± 0.053
CCGUCA | 1.909 ± 0.008 | 1.855 ± 0.0032
GCGUCA | 1.96 ± 0.023 | 1.68 ± 0.069
UCGUCA | 1.986 ± 0.016 | 1.807 ± 0.0051
ACGUCA | 1.94 ± 0.038 | 1.64 ± 0.032
CCGUCC | 1.98 ± 0.067 | 1.91 ± 0.057
GCGUCC | 1.93 ± 0.029 | 1.59 ± 0.039
UCGUCC | 1.98 ± 0.026 | 1.95 ± 0.0024
ACGUCC | 1.957 ± 0.0037 | 1.847 ± 0.015
CCGUCG | 1.89 ± 0.061 | 1.689 ± 0.011
GCGUCG | 1.89 ± 0.037 | 1.53 ± 0.041
UCGUCG | 1.99 ± 0.042 | 1.85 ± 0.049
ACGUCG | 1.88 ± 0.041 | 1.41 ± 0.11
CCGUCU | 1.97 ± 0.036 | 1.83 ± 0.063
GCGUCU | 1.98 ± 0.085 | 1.772 ± 0.0055
UCGUCU | 1.93 ± 0.049 | 1.87 ± 0.062
ACGUCU | 1.95 ± 0.042 | 1.65 ± 0.066
CCGUGC | 1.9 ± 0.057 | 1.54 ± 0.08
GCGUGC | 1.949 ± 0.016 | 1.619 ± 0.006
ACGUGC | 1.81 ± 0.023 | 1.515 ± 0.0062
